This assay deals with T1, murine MBP::KSR1 (mouse, UniProt Q61097 1-873).
T1 sequence (looked up): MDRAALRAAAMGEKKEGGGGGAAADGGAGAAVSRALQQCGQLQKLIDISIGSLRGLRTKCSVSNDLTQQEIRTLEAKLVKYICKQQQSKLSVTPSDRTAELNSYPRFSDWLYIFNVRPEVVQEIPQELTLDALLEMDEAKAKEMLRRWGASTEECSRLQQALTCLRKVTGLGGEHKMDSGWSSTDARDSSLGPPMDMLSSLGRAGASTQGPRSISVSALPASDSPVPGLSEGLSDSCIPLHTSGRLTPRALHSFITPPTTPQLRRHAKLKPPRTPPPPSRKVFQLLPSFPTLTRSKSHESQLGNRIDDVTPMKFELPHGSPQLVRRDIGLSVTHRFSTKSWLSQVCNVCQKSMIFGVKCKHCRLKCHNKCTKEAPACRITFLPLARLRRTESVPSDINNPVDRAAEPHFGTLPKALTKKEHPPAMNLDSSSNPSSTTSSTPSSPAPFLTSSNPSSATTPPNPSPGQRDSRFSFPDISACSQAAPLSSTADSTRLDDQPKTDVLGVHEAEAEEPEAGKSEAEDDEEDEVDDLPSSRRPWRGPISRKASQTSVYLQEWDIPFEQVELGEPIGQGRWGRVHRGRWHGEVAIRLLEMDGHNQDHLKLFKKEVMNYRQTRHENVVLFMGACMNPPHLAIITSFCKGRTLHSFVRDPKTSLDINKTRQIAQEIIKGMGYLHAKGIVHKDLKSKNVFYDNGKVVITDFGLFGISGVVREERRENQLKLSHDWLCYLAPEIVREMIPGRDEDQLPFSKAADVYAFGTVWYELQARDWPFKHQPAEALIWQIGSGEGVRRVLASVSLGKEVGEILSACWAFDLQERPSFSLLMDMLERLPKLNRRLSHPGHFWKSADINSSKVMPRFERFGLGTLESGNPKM
Briefly: pull-down.

B1: GST::NDK-1::His6 (natural protein, C. elegans, UniProt Q93576 1-153, looked up)
chain: MSNTERTFIAIKPDGVHRGLVGKIIARFEERGYKLVALKQMTASKAHLEVHYQDLKDKPFFPSLIEYMSSGPVVAMVWQGLDVVKQGRSMLGATNPLASAPGTIRGDFCIQTGRNICHGSDAVDSANREIAHWFKQEEINDYASPFINSWVYE
For the molecule B1, the binding result is given as “binds”.

Values taken from paper PMC3737725 (Development (Cambridge, England), 2013).
